T1: RpoA (RNAP alpha subunit), untagged (Agrobacterium tumefaciens) (UniProt P0A4E3)
T1 sequence: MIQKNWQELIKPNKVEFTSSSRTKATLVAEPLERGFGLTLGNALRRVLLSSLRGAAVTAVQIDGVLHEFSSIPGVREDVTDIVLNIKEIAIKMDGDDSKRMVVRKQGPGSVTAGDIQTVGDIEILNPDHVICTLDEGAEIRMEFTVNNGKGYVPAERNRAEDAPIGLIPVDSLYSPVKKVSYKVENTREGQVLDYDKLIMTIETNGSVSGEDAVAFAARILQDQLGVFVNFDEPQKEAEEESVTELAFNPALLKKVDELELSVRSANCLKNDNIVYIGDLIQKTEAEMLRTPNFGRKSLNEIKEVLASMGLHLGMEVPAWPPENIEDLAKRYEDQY

T2: RpoA delta C-terminal 8 (residues 1-328) deletion of 329-336 (Agrobacterium tumefaciens) (UniProt P0A4E3)
T2 sequence: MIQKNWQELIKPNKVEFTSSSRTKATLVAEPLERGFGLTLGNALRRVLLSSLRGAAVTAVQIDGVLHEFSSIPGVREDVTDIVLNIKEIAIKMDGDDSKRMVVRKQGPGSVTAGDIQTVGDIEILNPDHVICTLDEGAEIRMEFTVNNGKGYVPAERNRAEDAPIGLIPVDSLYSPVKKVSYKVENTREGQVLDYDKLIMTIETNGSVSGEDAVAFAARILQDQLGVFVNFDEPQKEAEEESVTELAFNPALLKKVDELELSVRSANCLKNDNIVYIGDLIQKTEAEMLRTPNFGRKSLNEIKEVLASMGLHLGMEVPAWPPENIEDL


Columns and labels:
[1] = biological target: T1, RpoA (RNAP alpha subunit), untagged (Agrobacterium tumefaciens); experiment: cell_activity; conditions: pPS1.3 in E. coli MC4100(pSY215) with VirGcon; vector control 3; indirect reporter
[2] = biological target: T2, RpoA delta C-terminal 8 (residues 1-328) deletion of 329-336 (Agrobacterium tumefaciens); experiment: cell_activity; conditions: pAD8 in E. coli MC4100(pSY215) with VirGcon; vector control 3; indirect reporter
[3] = biological target: T3, E. coli RNA polymerase β subunit (Escherichia coli, UniProt P0A8V2 1-1342); experiment: in vitro reconstitution of RNAP, SDS-PAGE (FIG. 4A)
T3 construct: also called E. coli β

[4] = biological target: T4, E. coli RNA polymerase β′ subunit (Escherichia coli, UniProt P0A8T7 1-1407); experiment: as above
T4 construct: also called E. coli β′

[5] = biological target: T5, E. coli RNA polymerase σ70 subunit (Escherichia coli, UniProt P00579 1-613); experiment: as above
T5 construct: also called σ^70
T5 sequence (P00579 whole entry): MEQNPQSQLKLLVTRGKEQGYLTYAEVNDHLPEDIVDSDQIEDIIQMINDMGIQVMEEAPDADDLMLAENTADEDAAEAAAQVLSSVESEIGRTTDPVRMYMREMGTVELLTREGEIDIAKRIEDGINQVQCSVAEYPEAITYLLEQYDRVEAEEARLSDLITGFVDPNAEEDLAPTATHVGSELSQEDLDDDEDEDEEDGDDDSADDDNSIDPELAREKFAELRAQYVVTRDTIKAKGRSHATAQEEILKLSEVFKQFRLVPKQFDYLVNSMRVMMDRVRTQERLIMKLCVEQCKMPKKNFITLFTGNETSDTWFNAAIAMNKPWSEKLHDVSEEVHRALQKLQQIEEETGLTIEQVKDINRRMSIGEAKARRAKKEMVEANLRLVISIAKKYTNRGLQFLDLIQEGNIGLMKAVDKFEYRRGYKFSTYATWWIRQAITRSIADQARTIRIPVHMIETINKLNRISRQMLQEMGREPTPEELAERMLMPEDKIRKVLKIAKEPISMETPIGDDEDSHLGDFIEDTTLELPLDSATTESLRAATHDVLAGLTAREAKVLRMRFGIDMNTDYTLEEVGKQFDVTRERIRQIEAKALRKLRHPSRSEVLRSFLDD

T3 sequence (P0A8V2 whole entry): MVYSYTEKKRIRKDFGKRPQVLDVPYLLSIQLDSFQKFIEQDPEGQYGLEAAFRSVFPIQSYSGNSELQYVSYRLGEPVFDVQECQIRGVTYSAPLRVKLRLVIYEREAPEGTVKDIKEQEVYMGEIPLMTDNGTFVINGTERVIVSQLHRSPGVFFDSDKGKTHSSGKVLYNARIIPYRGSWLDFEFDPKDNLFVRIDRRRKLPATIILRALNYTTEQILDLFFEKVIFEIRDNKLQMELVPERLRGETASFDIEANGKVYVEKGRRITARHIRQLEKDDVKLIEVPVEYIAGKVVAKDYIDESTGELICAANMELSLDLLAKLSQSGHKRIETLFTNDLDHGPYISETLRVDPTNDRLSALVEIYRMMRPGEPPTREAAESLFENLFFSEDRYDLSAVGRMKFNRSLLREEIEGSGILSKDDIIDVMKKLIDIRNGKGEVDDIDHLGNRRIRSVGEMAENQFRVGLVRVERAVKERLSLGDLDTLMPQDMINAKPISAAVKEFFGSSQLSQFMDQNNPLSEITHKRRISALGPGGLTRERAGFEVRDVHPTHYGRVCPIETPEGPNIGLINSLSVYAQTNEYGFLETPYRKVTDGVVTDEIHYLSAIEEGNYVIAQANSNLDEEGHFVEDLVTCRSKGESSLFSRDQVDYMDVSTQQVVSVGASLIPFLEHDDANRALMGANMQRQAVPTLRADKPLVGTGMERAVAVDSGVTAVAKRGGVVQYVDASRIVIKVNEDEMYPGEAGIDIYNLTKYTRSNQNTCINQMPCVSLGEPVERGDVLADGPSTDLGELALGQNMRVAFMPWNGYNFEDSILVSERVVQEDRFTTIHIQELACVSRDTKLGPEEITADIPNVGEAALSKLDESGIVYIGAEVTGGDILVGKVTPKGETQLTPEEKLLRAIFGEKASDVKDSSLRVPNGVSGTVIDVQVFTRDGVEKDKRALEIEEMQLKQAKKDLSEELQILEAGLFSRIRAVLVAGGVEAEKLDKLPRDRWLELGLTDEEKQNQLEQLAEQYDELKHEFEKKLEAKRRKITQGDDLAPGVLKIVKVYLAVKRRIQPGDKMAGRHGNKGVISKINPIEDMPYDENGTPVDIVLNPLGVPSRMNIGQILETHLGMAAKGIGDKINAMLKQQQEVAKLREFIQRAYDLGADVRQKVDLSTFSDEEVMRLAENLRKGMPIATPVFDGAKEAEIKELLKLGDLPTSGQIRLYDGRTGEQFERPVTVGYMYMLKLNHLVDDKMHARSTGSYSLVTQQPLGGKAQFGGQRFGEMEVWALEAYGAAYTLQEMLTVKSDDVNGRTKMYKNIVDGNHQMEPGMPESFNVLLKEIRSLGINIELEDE
T4 sequence (P0A8T7 whole entry): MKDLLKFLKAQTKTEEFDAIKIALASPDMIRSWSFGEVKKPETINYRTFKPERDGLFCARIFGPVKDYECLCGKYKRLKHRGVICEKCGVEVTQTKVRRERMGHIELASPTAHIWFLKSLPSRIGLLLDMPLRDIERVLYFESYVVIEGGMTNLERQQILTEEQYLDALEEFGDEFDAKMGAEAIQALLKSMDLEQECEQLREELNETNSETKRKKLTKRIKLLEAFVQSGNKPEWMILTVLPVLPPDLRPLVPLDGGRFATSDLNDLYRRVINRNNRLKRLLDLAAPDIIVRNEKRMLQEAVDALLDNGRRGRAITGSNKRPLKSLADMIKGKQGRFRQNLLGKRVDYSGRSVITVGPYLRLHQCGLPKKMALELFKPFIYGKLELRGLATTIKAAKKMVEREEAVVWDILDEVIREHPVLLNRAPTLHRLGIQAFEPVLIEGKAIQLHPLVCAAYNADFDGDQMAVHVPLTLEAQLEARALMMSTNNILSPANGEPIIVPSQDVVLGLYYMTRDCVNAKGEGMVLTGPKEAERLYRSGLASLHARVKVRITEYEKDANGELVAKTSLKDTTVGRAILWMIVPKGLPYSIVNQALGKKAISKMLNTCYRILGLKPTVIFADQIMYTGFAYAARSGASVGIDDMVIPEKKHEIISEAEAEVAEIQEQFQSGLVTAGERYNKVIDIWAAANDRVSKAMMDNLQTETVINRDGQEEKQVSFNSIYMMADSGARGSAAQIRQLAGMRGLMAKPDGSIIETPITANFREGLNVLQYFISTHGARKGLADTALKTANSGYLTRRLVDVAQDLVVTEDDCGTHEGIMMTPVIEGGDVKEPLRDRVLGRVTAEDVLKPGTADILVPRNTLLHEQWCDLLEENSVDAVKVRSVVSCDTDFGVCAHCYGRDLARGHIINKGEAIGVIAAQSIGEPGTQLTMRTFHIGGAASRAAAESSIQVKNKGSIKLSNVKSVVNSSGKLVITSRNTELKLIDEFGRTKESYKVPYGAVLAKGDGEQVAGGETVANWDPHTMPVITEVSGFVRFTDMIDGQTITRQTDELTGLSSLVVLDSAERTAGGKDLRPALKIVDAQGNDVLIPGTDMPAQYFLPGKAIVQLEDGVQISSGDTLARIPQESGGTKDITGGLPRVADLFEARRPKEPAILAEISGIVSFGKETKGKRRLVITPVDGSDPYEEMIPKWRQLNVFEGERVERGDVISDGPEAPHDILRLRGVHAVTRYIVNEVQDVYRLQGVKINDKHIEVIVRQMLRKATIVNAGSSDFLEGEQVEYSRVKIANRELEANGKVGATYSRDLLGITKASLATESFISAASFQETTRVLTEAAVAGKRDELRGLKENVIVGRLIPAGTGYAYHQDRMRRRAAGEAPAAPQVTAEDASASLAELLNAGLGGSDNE

| Molecule | activity [1] [Miller units] | activity [2] [Miller units] | binding result [3] | binding result [4] | binding result [5] |
| --- | --- | --- | --- | --- | --- |
| virBp::lacZ reporter promoter | 140 | 4 |  |  |  |
| His-tagged RpoA (α subunit of RNA polymerase) of A. tumefaciens (other, not shown: N-terminal His tag from a pQE vector (Qiagen)) MIQKNWQELIKPNKVEFTSSSRTKATLVAEPLERGFGLTLGNALRRVLLSSLRGAAVTAVQIDGVLHEFSSIPGVREDVTDIVLNIKEIAIKMDGDDSKRMVVRKQGPGSVTAGDIQTVGDIEILNPDHVICTLDEGAEIRMEFTVNNGKGYVPAERNRAEDAPIGLIPVDSLYSPVKKVSYKVENTREGQVLDYDKLIMTIETNGSVSGEDAVAFAARILQDQLGVFVNFDEPQKEAEEESVTELAFNPALLKKVDELELSVRSANCLKNDNIVYIGDLIQKTEAEMLRTPNFGRKSLNEIKEVLASMGLHLGMEVPAWPPENIEDLAKRYEDQY |  |  | binds | binds | binds |

— patent US6764837 (BOARD OF TRUSTEES OF THE UNIVERSITY OF ARKANSAS, dated 2004)
